Reference: US20130096072A1 (Genentech, published 2013)
Bridges are numbered along the chain shown (N, C = ends). Where no end group is shown, it is not given here. [ ]: non-standard residue; d: D form. Hyp = O=C(O)[C@@H]1C[C@@H](O)CN1

B1: IVdG.14 peptide (peptide)
peptide: IV[dD]GYPWWMDV-NH2
notes: Printed as I V d G Y P W W M D V, d = D-aspartic acid
B2: ZAP.03 phage clone of Table 4B (ZAPtide Library, SEQ ID NO:129) (peptide)
chain: IVGGDFYSSYW
modifications: not fully specified
notes: not shown: M13 gene VIII coat protein fused after the peptide
B3: ZAP.15 phage clone (ZAPtide Library) (peptide)
chain: IVGGDPWWFVS
modifications: not fully specified
notes: as for B2
B4: ZAP.52 phage clone (ZAPtide Library) (peptide)
chain: IVGGLWEMWVT
modifications: not fully specified
notes: as for B2
B5: ZAP.91 phage clone (ZAPtide Library) (peptide)
chain: IVGGYPVYFLN
modifications: not fully specified; also: fused before M13 gene VIII coat protein, linker not given here
notes: as for B2
B6: ZAP.54 phage clone (ZAPtide Library) (peptide)
chain: IVGGLDVEYEL
modifications: not fully specified
notes: as for B2
B7: ZAP.11 phage clone (ZAPtide Library) (peptide)
chain: IVGGHPMSPFS
modifications: not fully specified
notes: as for B2
B8: ZAP.24 phage clone (ZAPtide Library) (peptide)
chain: IVGGCKRSYWE
modifications: not fully specified
notes: as for B2
B9: ZAP.30 phage clone (ZAPtide Library) (peptide)
chain: IVGGYPAWMEY
modifications: not fully specified
notes: as for B2
B10: ZAP.29 phage clone (ZAPtide Library) (peptide)
chain: IVGGTRCNDWI
modifications: not fully specified
notes: as for B2
B11: ZAP.67 phage clone (ZAPtide Library) (peptide)
chain: IVGGPHKAFLL
modifications: not fully specified; also: fused before M13 gene VIII coat protein, linker not given here
notes: as for B2
B12: ZAP.53 phage clone (ZAPtide Library) (peptide)
chain: IVGGYPWWVDV
modifications: not fully specified
notes: as for B2
B13: ZAP.13 phage clone (ZAPtide Library) (peptide)
chain: IVGGYPWWITG
modifications: not fully specified
notes: as for B2
B14: ZAP.65 phage clone (ZAPtide Library) (peptide)
chain: IVGGEPAYWYW
modifications: not fully specified; also: fused before M13 gene VIII coat protein, linker not given here
notes: as for B2
B15: ZAP.63 phage clone (ZAPtide Library) (peptide)
chain: IVGGMRLCGYI
modifications: not fully specified; also: fused before M13 gene VIII coat protein, linker not given here
notes: as for B2
B16: ZAP.06 phage clone (ZAPtide Library) (peptide)
chain: IVGGDGMPWWI
modifications: not fully specified
notes: as for B2
B17: ZAP.50 phage clone (ZAPtide Library) (peptide)
chain: IVGGDYYWVVQ
modifications: not fully specified
notes: as for B2
B18: ZAP.18 phage clone (ZAPtide Library) (peptide)
chain: IVGGFVFWCDQ
modifications: not fully specified
notes: as for B2
B19: ZAP.01a phage clone (ZAPtide Library) (peptide)
chain: IVGGVRCWVSN
modifications: not fully specified
notes: Not the 15-mer ZAP.01; not shown: M13 gene VIII coat protein fused after the peptide
B20: ZAP.45 phage clone (ZAPtide Library) (peptide)
chain: IVGGKWQRKRV
modifications: not fully specified
notes: as for B2
B21: ZAP.09 phage clone (ZAPtide Library) (peptide)
chain: H-IVGGDYWWVPI
modifications: not fully specified
notes: as for B2
B22: ZAP.04 phage clone (ZAPtide Library) (peptide)
chain: IVGGSDFPWWV
modifications: not fully specified
notes: as for B2
B23: ZAP.43 phage clone (ZAPtide Library) (peptide)
chain: IVGGDPVYVLY
modifications: not fully specified
notes: as for B2
B24: IVGG.14 phage clone (ZAPtide Library) (peptide)
chain: IVGGYPWWMDV
modifications: not fully specified
notes: as for B2
B25: ZAP.39 phage clone (ZAPtide Library) (peptide)
chain: IVGGSACLIAM
modifications: not fully specified
notes: as for B2
B26: ZAP.32 phage clone (ZAPtide Library) (peptide)
chain: IVGGEPVWYVW
modifications: not fully specified
notes: as for B2
B27: ZAP.25 phage clone (ZAPtide Library) (peptide)
chain: IVGGNKIWSVS
modifications: not fully specified
notes: as for B2
B28: ZAP.03S peptide (peptide)
peptide: IIGGSPYWMDREESI-NH2
notes: ZAP.03 with both cysteines changed to serine; no disulfide

These molecules were tested on IVGG.147A peptide (assay: not given).

Row | Molecule | initial rate of hydrolysis (Vi) of Ile-Pro-Arg-pNA, 100 nM enzyme, 2 mM substrate
1 | Protein C (zymogen) | the initial rate of substrate hydrolysis (Vi) for both prethrombin-2 and Protein C zymogens significantly increased upon titration of IVGG.147A into the reaction
2 | prethrombin-2 | the initial rate of substrate hydrolysis (Vi) for both prethrombin-2 and Protein C zymogens significantly increased upon titration of IVGG.147A into the reaction

The molecules below were run against T1, scHGF β-chain (zymogen-like HGF β, residues Asn479 to Ser728, R494E, C-terminal His-tag) (human, UniProt P14210 479-728) (assay: cell-based or functional assay).
T1 sequence (P14210 479-728 R494E): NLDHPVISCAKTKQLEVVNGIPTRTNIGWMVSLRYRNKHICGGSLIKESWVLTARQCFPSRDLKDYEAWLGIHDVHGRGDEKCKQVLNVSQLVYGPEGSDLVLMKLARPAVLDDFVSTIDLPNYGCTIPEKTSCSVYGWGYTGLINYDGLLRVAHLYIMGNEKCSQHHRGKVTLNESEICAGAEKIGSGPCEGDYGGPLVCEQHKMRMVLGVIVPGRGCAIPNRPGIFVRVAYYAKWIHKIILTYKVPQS

Row | Molecule | activity (alanine scanning of the YPWWM turn motif), loss against IVGG.14 [fold]
3 | IVGGYAWWMDV-NH2 [IVGG.14 P6A variant] | 25
4 | IVGGYPWAMDV-NH2 [IVGG.14 W8A variant] | 10

These molecules were tested against scHGF (non-cleavable form of full-length pro-HGF with a mutated cleavage site) (human, UniProt P14210 32-728) (assay: cell-based or functional assay).
Sequence of scHGF (non-cleavable form of full-length pro-HGF with a mutated cleavage site) (P14210 32-728 limits assumed, change not shown): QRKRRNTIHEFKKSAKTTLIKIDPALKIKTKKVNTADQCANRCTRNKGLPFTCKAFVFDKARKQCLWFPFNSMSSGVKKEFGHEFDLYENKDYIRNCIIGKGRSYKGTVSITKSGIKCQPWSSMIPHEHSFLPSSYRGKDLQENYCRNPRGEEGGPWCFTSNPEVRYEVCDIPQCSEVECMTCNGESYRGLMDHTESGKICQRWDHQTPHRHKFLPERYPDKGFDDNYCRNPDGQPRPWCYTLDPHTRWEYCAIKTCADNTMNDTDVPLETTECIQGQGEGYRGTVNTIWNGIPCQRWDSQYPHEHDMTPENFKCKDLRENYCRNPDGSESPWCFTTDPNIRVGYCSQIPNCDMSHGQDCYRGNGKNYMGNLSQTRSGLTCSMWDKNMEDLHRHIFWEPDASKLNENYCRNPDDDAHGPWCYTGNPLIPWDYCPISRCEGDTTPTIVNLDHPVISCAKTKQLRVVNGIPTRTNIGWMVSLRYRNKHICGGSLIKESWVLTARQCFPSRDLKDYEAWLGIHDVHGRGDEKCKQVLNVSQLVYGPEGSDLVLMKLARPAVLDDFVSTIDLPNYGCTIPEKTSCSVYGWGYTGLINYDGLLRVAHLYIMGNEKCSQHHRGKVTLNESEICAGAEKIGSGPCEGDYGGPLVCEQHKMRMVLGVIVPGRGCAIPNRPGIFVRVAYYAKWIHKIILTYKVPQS

Row | Molecule | EC50, HeLa cell migration in an in vitro wound closure assay [µM] | EC50, cell survival of BxPC3 cells during serum starvation [µM] | EC50, BxPC-3 cell survival assay, peptide titrated with scHGF [µM]
5 | IIGGCPYWMDREECI-NH2 (disulfide 5-14, also called ZAP2.3; ZAP.-3) [ZAP.03 (cyclic 15-mer synthetic peptide)] | 0.06 | 0.4 | 
6 | B1 |  |  | ~20

The molecules below were run against T1, scHGF β-chain (zymogen-like HGF β, …) (assay: BLI scHGF β activation/Met binding assay).

Row | Molecule | fold improvement relative to IVGG.14 [fold] | fold better than IVGG.14 [fold] | fold better than the previously described peptide activators [fold] | fold better than peptides previously described [fold] | fold enhancement relative to IVGG.14 [fold]
7 | IIGGCPYWMDREECI-NH2 (disulfide 5-14, also called ZAP2.3; ZAP.-3) [ZAP.03 (cyclic 15-mer synthetic peptide)] | ~100 |  |  |  | 
8 | IIGGY[Hyp]WWMDV-NH2 (Printed as I I G G Y hyP W W M D V) [IIhyP.14 peptide] |  | 7 | > 400 |  | 
9 | B1 |  |  |  | 100 | 
10 | IVGGY[Hyp]WWMDV-NH2 (Printed as I V G G Y hyP W W M D V) [IVhyP.14 peptide] |  |  |  |  | 2

Each molecule was assayed against T1, scHGF β-chain (zymogen-like HGF β, …) (assay: phage panning against scHGF β (4 rounds) and phage ELISA).
Description: The pfam database (Finn, R. D. et al. (2010) Nucleic Acids Res 38: D211-22) was used to derive a consensus sequence for trypsin/chymotrypsin-like serine proteases and identify the N-terminal IVGG motif. Peptide libraries were synthesized as fusions to the gene VIII coat protein of M13 phage and panned against scHGF β as previously described (Tonikian, R. et al. (2007) Nat Protoc 2: 1368-86; Sidhu, S. S. et al. (2000) Methods Enzymol. 328:333-63). […] Single phage clones were picked, grown overnight and a standard phage ELISA was used to verify target specific binding. Once the IVGG.14 sequence was identified, soft randomization on gene VIII was performed on positions X₂-X₁₁.

Row | Molecule | binding result
11 | B2 | binds
12 | B3 | binds
13 | B4 | binds
14 | B5 | binds
15 | B6 | binds
16 | B7 | binds
17 | B8 | binds
18 | B9 | binds
19 | B10 | binds
20 | B11 | binds
21 | B12 | binds
22 | B13 | binds
23 | B14 | binds
24 | B15 | binds
25 | B16 | binds
26 | B17 | binds
27 | B18 | binds
28 | B19 | binds
29 | B20 | binds
30 | B21 | binds
31 | B22 | binds
32 | B23 | binds
33 | B24 | binds
34 | B25 | binds
35 | B26 | binds
36 | B27 | binds

The molecules below were run against T1, scHGF β-chain (zymogen-like HGF β, …) (assay: BLI (OctetRed) scHGF β activation/Met binding assay: peptide titrated into 0.5 µM scHGF β over biotinylated Met Sema/PSI on streptavidin tips; steady-state single-site fit).
Protocol: (§1) Met binding assays were carried out utilizing the OctetRed™ biolayer interferometry instrument (ForteBio, Inc.) as reported previously (Landgraf, K. E. et al. (2010) J Biol Chem 285: 40362-72). Biotinylated Met ECD (Sema/PSI-AviTag) was captured on the surface of streptavidin optical sensor tips (SA biosensors, ForteBio, Inc.), and transferred into buffer containing 0.5 μM scHGF β-chain variants in the presence of increasing concentration of indicated peptides. Association and dissociation reactions were monitored to ensure reversible binding between scHGF β and Met. Binding was quantified using the steady-state levels of surface response from the association reaction. Equilibrium constants were derived by least squares fitting of the titration data to a single-site binding equation. Errors reported are ±stdev of n=3 independent experiments.
Based on the finding that the consensus ZAPs contain features consistent with binding and inserting into the activation pocket, several related peptides were synthesized and utilized in a previously established scHGF β activation assay to assess their affinities and ability to active Met binding (Landgraf, K. E. et al. (2010) J Biol Chem 285: 40362-72). Since scHGF β can only weakly interact with the Met Sema-PSI domain compared to the active HGF β form, biolayer interferometry was used in the activation assay to measure the ability of a peptide to directly enhance the binding affinity of scHGF β to a streptavidin sensor surface coated with biotinylated Met (Landgraf, K. E. et al. (2010) J Biol Chem 285: 40362-72). Thus, titration of an activator peptide should result in a significant increase in the surface response signal due to enhanced scHGF β binding to Met.

Row | Molecule | Kd [µM]
37 | IIGGCPYWMDREECI-NH2 (disulfide 5-14, also called ZAP2.3; ZAP.-3) [ZAP.03 (cyclic 15-mer synthetic peptide)] | 0.3
38 | IIGGY[Hyp]WWMDV-NH2 (Printed as I I G G Y hyP W W M D V) [IIhyP.14 peptide] | 5
39 | B1 | 21
40 | IVDGYPWWMDV-NH2 [IVDG.14 peptide] | 85
41 | IIGGDPYWVPHPGDA-NH2 [ZAP.01 (linear 15-mer synthetic peptide)] | 6
42 | IVGGY[Hyp]WWMDV-NH2 (Printed as I V G G Y hyP W W M D V) [IVhyP.14 peptide] | 14
43 | B28 | 59

These molecules were tested against T1, scHGF β-chain (zymogen-like HGF β, …) (assay: biolayer interferometry: biotinylated Met Sema/PSI on streptavidin tips, 0.5 µM scHGF β in solution, peptide titrated; steady-state surface response of scHGF β binding to Met).
Protocol: as §1
Based on the finding that the consensus ZAPs contain features consistent with binding and inserting into the activation pocket, several related peptides were synthesized and utilized in a previously established scHGF β activation assay to assess their affinities and ability to active Met binding (Landgraf, K. E. et al. (2010) J Biol Chem 285: 40362-72). […]

Row | Molecule | binding result
44 | IVDDYPWWMDV-NH2 [IVDD.14 peptide] | no binding (tested: about 125 µM)
45 | IVGDYPWWMDV-NH2 [IVGD.14 peptide] | no binding
